The target in assay [1] is T1, Recombinant human Dkk-1 (R&D Systems cat no. 1096-DK/CF), 10xHis tag at the C terminal (human, UniProt O94907 32-266).
T1 construct: the actual N-terminus of the purified protein is marked in bold italic after residue 30, but the mark is an image lost in the text; also called rhuDkk-1; hDkk-1
T1 sequence: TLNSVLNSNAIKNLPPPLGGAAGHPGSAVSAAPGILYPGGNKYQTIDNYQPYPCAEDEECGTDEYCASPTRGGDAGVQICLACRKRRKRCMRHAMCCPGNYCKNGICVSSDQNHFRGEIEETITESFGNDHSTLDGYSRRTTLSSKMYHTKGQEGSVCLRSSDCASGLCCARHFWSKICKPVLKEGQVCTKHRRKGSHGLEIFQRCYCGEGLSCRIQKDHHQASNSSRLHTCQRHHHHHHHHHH
The assay is described as follows: ELISA, plate coated with human DKK-1 at 1.0 ug/ml, JC18 titrated, OD read. The protocol: (§1) Dkk-1 specific antibodies were detected using the following ELISA based method. rhuDkk-1 protein (R&D systems cat no. 1096 DK/CF) was diluted to 1 ug/ml in coating buffer (Sigma carbonate/bicarbonate coating buffer pH 9.6 Cat No. C-3041 made up according to manufacturers instructions). 100 uls of Dkk-1 was added per well to Nunc Maxisorp 96 well plates and incubated overnight at 4° C. Wells were washed 4× with 250 uls/well of wash buffer (0.05% (v/v) Tween-20 (Sigma Cat no. P2287) in dPBS without Ca/Mg++ (Sigma Cat No. D8537)) then blocked with 200 uls/well of blocking buffer (1% PVA (Sigma cat no. 363170) (weight/volume) in dPBS (Sigma cat no.D8537)) for 2 hrs at room temperature. Blocking buffer was then removed by rapid decanting. Antibodies were diluted by consecutive 2-fold serial dilutions in blocking buffer and applied to each plate at 100 ul per well. Plates were incubated for 1 hour at RT and then washed as described above.
(§2) Binding of the test antibody to Dkk was determined by addition of a secondary antibody specific for the antibody species. […] Once developed, the plate absorbance was measured at 405 and 490 nm. Absorbance values were presented as the difference between absorbance at both wavelengths.
For orientation: An ELISA detects its analyte on a solid surface through an enzyme-linked reagent.

The target of assay [2] is T2, recombinant human Dkk3 (R&D systems Cat No. 1118-DK/CF) (human, UniProt Q9UBP4 22-350).
T2 construct: Bought; also called hDkk-3
As to the kind of experiment: ELISA, plate coated with human DKK-3 at 1.0 ug/ml, JC18 titrated, OD read.

In assay [3] the target is T1, Recombinant human Dkk-1 (R&D Systems …). As to the kind of experiment: SPR BIAcore 25C, JC18 captured by anti-mouse IgG, Dkk-1 injected. The protocol:
(§3) For this assay, polyclonal anti-mouse IgG was amine-coupled to the BIAcore chip. Anti-Dkk-1 antibody JC18 is at 6.53 μg/ml, and was captured for 1 min at 5 μl/min. A five-fold series dilution of human, mouse or rat Dkk-1 (R&D Systems; from 0.4-250 nM) was injected for 1 min at 50-100 μl/min. Dissociation was monitored for 3-5 min. The chip was regenerated with two 30-sec pulses of 100 mM H₃PO₄.
A general note: Surface plasmon resonance follows binding to a sensor surface in real time, without labels.

Assay [4] addresses T3, recombinant rat Dkk-1 (R&D systems Cat No. 4010-DK/CF) (rat).
T3 construct: Bought
The assay is described as above. As for the experimental part: as §3

Assay [5] has as its target T4, recombinant mouse Dkk-1 (R&D systems Cat No. 1765-DK/CF) (mouse, UniProt O54908 32-272).
T4 construct: Bought
T4 sequence (looked up): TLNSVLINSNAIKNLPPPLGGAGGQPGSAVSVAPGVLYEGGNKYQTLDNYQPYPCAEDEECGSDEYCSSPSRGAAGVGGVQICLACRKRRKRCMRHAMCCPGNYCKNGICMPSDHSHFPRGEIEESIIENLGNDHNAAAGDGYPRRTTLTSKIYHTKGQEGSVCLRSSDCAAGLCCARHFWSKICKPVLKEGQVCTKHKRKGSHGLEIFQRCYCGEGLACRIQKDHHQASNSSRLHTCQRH
Described as above. As for the experimental part: as §3

Assay [6] has as its target T5, recombinant mouse Dkk-2 (R&D systems Cat No. 2435-DK/CF) (mouse, UniProt Q9QYZ8 34-259, limits assumed).
T5 construct: Bought; also called mDkk-2
T5 sequence (looked up): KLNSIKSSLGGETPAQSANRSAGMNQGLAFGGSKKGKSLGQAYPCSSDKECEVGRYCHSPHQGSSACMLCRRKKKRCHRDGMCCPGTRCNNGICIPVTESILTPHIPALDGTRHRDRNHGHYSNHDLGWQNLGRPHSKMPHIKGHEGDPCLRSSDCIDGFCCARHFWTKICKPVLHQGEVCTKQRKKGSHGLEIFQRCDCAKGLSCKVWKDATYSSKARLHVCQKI
As to the kind of experiment: ELISA, plate-coated antigen. The protocol:
as §1, with “Antibodies were diluted by consecutive 2-fold serial dilutions in blocking buffer and applied to each plate at 100 ul per well. Plates were incubated for 1 hour at RT and then washed as described above.” left out
as §2
The ability of JC18 to bind to other species Dkk proteins was assessed using the ELISA protocol described above with the exception that plates were also coated with recombinant rat Dkk-1(R&D systems Cat No. 4010-DK/CF), mouse Dkk-1 (R&D systems Cat No. 1765-DK/CF), mouse Dkk-2 (R&D systems Cat No. 2435-DK/CF), and mouse Dkk-4 (R&D systems Cat No. 3105-DK/CF).

Assay [7] has as its target T1, Recombinant human Dkk-1 (R&D Systems …). As to the kind of experiment: SPR 37C (BIAcore/ProteOn), hDkk-1 series over captured IgG (taken so as kon is printed).

For orientation: EC50 (read off the curve) means the concentration giving half of the maximal effect. As usually defined, the Kd is the concentration at which binding is half-saturated. By koff is commonly meant a measure of how fast the partners let go of each other. One may read the kon as the second-order rate constant of association.

T2 sequence (Q9UBP4 22-350 limits assumed): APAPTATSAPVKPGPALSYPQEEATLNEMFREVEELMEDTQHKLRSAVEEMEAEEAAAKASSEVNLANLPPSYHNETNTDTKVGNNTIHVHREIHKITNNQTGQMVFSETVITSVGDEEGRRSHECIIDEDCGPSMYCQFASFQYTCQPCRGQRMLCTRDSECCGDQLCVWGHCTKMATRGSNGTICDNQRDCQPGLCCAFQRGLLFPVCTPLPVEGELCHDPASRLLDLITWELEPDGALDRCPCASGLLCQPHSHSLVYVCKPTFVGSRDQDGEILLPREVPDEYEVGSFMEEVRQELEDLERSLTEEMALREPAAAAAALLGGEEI

B1: JC18 wildtype (mouse) monoclonal antibody (antibody, mouse IgG1, V domains shown)
VH: EVKLVESGGGLVKPGGSLKLSCAASGFTFSNYAMSWVRQTPEKRLEWVASISGGGDTYYPDSVKGRFTISRDNVRNILYLQMSSLRSEDTAMYYCATSLENYAMDYWGQGTSITVSS
VL: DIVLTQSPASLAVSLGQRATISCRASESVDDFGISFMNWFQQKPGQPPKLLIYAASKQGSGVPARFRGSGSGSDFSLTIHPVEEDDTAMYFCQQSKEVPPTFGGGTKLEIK
notes: also called muMabJC18; MabJC18
As to B1, the “EC50 (read off the curve)” value in assay [1] was about 3 ng/mL. Also, the binding result in assay [2] and in assay [6] was “no binding (tested: 5 ug/ml)” each time. Moreover, the figures for the Kd in assay [3], in assay [4] and in assay [5] were 0.65 nM, 0.72 nM and 1.5 nM, respectively. In addition, the results for the koff in assay [3], in assay [4] and in assay [5] were 0.00207 s⁻¹, 0.00275 s⁻¹ and 0.00254 s⁻¹, respectively. In addition, the kon in assay [3] is 3.18e+06 M⁻¹ s⁻¹; in assay [4] it was 3.8e+06 M⁻¹ s⁻¹; in assay [5], 1.74e+06 M⁻¹ s⁻¹.

B2: 4F10.33L (antibody, V domains shown)
VH: EVQLVESGGGLVQPGGSLRLSCAASGFTFSSYAISWVRQAPGKGLEWVASVSGTGLGFQTYYPDSVKGRFTISRDNAKNSLYLQMNSLRAEDTAVYYCATSLKNYAFDYWGQGTTVTVSS
VL: EIVLTQSPATLSLSPGERATLSCRASESVDDFGISFINWYQQKPGQAPRLLIYAGSKQGSGIPARFSGSGSGTDFTLTISSLEPEDFAVYYCQQLKEVPPTFGGGTKVEIK
Consider B2, for which, in assay [7], the Kd was 0.037 nM, the koff was found to be 8.55e-05 s⁻¹ and the kon was 2.31e+06 M⁻¹ s⁻¹.

These data come from US20130071921A1 (Pfizer, published 2013).
